{
  "source": "the DeepSol protein solubility set",
  "data": [
    {"assay": "soluble on expression in E. coli; label from the status in PepcDB or PDB records", "values": [
      {"sequence": "MSLLIKFESKSARVKGISFHPTRPWVLTSLHSGVIQLWDYRMCVLLEKFDEHDGPVRGICFHHDQPIFVSGGDDYKIKVWNYKQKRCIFTLLGHLDYIRTTFFHHKYPWIISASDDQTVRIWNWQSRNSIAILTGHNHYVMCAQFHPTEDLVASASLDQTVRVWDISGLRKKQMPGGGAPSRPTGGQQAELFGQPDAVVKHVLEGHDRGVNWVAFHHTNPILVSGSDDRQVKIWRYNETKAWELDSCRGHYNNVSSVIFHPNADLILSNSEDKSIRVWDMQKRTSLHVFRHENERFWVLAAHPSLNMFAAGHDNGMVVFKIQRERPAYCVSDNLVFYVKGQQIRKLDLTTNKDVALCKLRYPQPFMQPYYSLSFNPAEGTFLLTSRTHNKDLCAFELYKVASNSDGTTEAACVKSTGINALWVARNRFAVLDKAQNVSLRDLTNKELRKLENINTAVDDIFYAGTGMLLLRNDDGLQLFDVQQKIVTASVKVSKVRYVIWSKSMEFAALLSKHTLTLVNRKLEILCTQQESTRVKSGAWDDDSVFLYTTSNHIKYAINSGDCGIVRTLDLPLYILAIRGNVLYCLNRDATPVEVPIDNSDYKFKLALINKRIDEVVNMVRSANLVGQSIIGYLEKKGYPEIALHFVKDEKTRFGLAIECGNLEIALEAAKKLDEPAVWEALGETALLQGNHQIVEMSYQRTKNFEKLSFLYFVTGNTDKLVKMMKIAQARNDAHGHFQTALYTGDVEERVKVLRNCGQTSLAYLAAATHGYSAEAEELKAELESRQQPIPPVDPNARLLVPPPPVARLEENWPLLASARGTFDAQLLGLGGQSAPTNVGGVKPAAAAFAVMDDDDGDVGNEAWGDDEYLVGEDGELDVDEGEGPVDGDEEGGWDVDDDLALPDVTDDQGGDDDEEVVPNPAPAVSSEWPNVSRLAADHVAAGSFGTAIKLLHDTIGVVEAAPFKDVFVKAYAASRLSHRGWGGLGPAGPVSIHPVRNFQEDKNHLPVAAFKLSQLAKKLQKAYQMTTNGKFGDAVEKLREILLSVPLIVVSSKQEVAEAEQLITITREYLAALLLETYRKDLPKTNLEDAKRNAELAAYFTHFELQPMHRILTLRSAINTFFKMKQMKTCASLCKRLLELAPKPEVAAQIRKVLTAAEKDNTDAHQLTYDEHNPFVVCSRQFVPLYRGRPLCKCPYCGASYSEGLEGEVCNVCQVAEVGKNVLGLRISTLKS", "soluble on expression in E. coli": "not soluble"},
      {"sequence": "MSLLKVRLCPAERPEAMLIDAHQHFWLMKDRAGQWPPPSLAAIYRDFLPTDLSPLLTAAGVSGTVLVQTMETAADTDFMLELAENTDFIKGVVGWVDMKSAEVTAEIARRAKHPAFKGVRPMLQGMEDVAWIDDAALNAAVEALVKHGLVFDALVLPPNLPHLLSFASKHPELPVVIDHGAKPLIATGHYRDWRRNMAALAARPNVHCKLSGLLTERGEQRPEAVRPYAETILELFGGDRVIFGSDWPVLRLAGDFQGWLDFCRDIVPAKDHAAVFGGNAIRFYSLTDREGHHHHHH", "soluble on expression in E. coli": "not soluble"},
      {"sequence": "MSLLLGVENGRITQLGDAELLAGELDISVKIHDYTGKIICPGFVDTHVHYPQLAIIGSYGESLLHWLENYAFDEEKKFNDADHSLKTANHFLDELLRCGTTTAQVFGTVHPESVEGFFTAAEHRDLRMICGKVLMDRNGPLGLLDTPETSYVDSKNLIERWHGRSRLRYAVSPRFAPTSTPDQLATARQLLREYPGTHLQTHLSEDQEEIKWVKSLFPHCKNYLDIYKRAGLLGKRSTFAHCLHLTEADWEMLEHEGCSVAFCPSSNLFLGSGLFDLPRPQFANVKVGIGTDVGAGTSLSMLQTIADAYKTQRLAGNDLSPLSGLYMATLGGAKSLDCDADIGNFKIGKEADFTVLDPESTPLMSYRMQNCKSLEERLAVIVLLGDDRAILATYANGRCVHDRDIDEESEGHHHHHH", "soluble on expression in E. coli": "soluble"},
      {"sequence": "MSLLRALPEVAEPEGVDFIEIATGRLGETIRVLHQLGFRLGGHHCSKQDYQVWTQGDVRIVVCDRGVTGAPTTISAMGFDTPDPEAAHARAELLRAQTIDRPHIEGEVDLKGVYAPDGVELFFAGPSPDGMPEWLPEFGVEKQEAGLIEAIDHVNFAQPWQHFDEAVLFYTALMALETVREDEFPSPIGLVRNQVMRSPNDAVRLLLSVAPEDGEQGDFLNAAYPEHIALATADIVAVAERARKRGLDFLPVPENYYDDVQARFDLPQEFLDTLKENHLLYDRDENGEFLHFYTRTLGTLFFEVVERRGGFAGWGETNAPVRLAAQYREVRDLERGIPEGHHHHHH", "soluble on expression in E. coli": "soluble"},
      {"sequence": "MSLLREKAVPIRIPDQLPASDVLRNENIFVMSESRASTQEIRPLKVLLLNLMPKKIETETQFLRLLSNSPLQVDIELLRIDDRPSKNTPEEHLNTFYRQFELVKNRNFDGLIITGAPLGLVQFEDVAYWQHLQNIMAWAKAHVTSTLYICWAAQAGLKLLYNLPKRTREEKLSGVYYHDIHKPFHPLLRGFDDRFLAPHSRYADFDAEFLAEHTDLDILATSDVAGVYLAATKDKRNVFVTGHPEYDAYTLHGEYVRDLGEGLNPAIPVNYYPNDNPDNKPCASWRSHGHLLFANWLNYCVYQQTPYDLEKFSEANFTKDEEGHHHHHH", "soluble on expression in E. coli": "soluble"},
      {"sequence": "MSLLRFSAVSRHHRGASIDPMTFSEATTPDALTPDAHTPRLLTCDVLYTGMGGAQSPGGVVVVGETVAAAGHPDELRRQYPHAAEERAGAVIAPPPVNAHTHLDMSAYEFQALPYFQWIPEVVIRGRHLRGVAAAQAGADTLTRLGAGGVGDIVWAPEVMDALLAREDLSGTLYFEVLNPFPDKADEVFAAARTHLERWRRLERPGLRLGLSPHTPFTVSHRLMRLLSDYAAGEGLPLQIHVAEHPTELEMFRTGGGPLWDNRMPALYPHTLAEVIGREPGPDLTPVRYLDELGVLAARPTLVHMVNVTPDDIARVARAGCAVVTCPRSNHHLECGTFDWPAFAAAGVEVALGTDSVASGETLNVREEVTFARQLYPGLDPRVLVRAAVKGGQRVVGGRTPFLRRGETWQEGFRWELSRDLEGHHHHHH", "soluble on expression in E. coli": "soluble"},
      {"sequence": "MSLLRIIDTETCGLQGGIVEIASVDVIDGKIVNPMSHLVRPDRPISPQAMAIHRITEAMVADKPWIEDVIPHYYGSEWYVAHNASFDRRVLPEMPGEWICTMKLARRLWPGIKYSNMALYKTRKLNVQTPPGLHHHRALYDCYITAALLIDIMNTSGWTAEQMADITGRPSLMTTFTFGKYRGKAVSDVAERDPGYLRWLFNNLDSMSPELRLTLKHYLENTEGHHHHHH", "soluble on expression in E. coli": "soluble"},
      {"sequence": "MSLLRLHDGDLLFVTAARTGLSGAIDDATATQGAPSFDHVGLVAHDGRARVVLHADEEGSRQQPLADFIRQARAKQRQIFVYRLNAAQRAAIPDAIAQARRMLGKPYNLTYVQDDNSYYCSDFIERAFRAHQVFALQPMNFKNPQSGQMSAYWTEFYRSKGMDVPQGLPGTNPNDMARAPALQALGPLDEGHHHHHH", "soluble on expression in E. coli": "soluble"},
      {"sequence": "MSLLTEQQRRELDWEKTDGLMPVIVQHAVSGEVLMLGYMNPEALDKTLESGKVTFFSRTKQRLWTKGETPGNFLNVVSIAPDCDNDTLLVLANPIGPTCHKGTSSCFGDTAHQWLFLYQLEQLLAERKSADPETSYTAKLYASGTKRIAQKVGEEGVETALAATVHDRFELTNEASDLMYHLLVLLQDQGLDLTPVIENLRKRHQEGHHHHHH", "soluble on expression in E. coli": "soluble"},
      {"sequence": "MSLLVIPAIDLQSGRCVRLKQGRFDQVTQFSVFPIERALHFAKLGAKRLHVVDLDGARSGKMQQLELICSMQKTGIPIQAGGGIRSIEQALECSNAGISQLVIGSLAITNPDLTIQIIEKIKPENIVLALDVRVDTKVPLLAINGWQNNSTSSLWEVVSYYENYGIKNILCTDIACDGMMNGPNFDLYQQAVEYFPQIAWQASGGVRHMQDITTLNSLGISAVILGLMLYQDHMNLEELLEGHHHHHH", "soluble on expression in E. coli": "soluble"},
      {"sequence": "MSLMNKSQQVQTITLAAAQQMAAAVEKKATEINVAVVFSVVDRGGNTLLIQRMDEAFVSSCDISLNKAWSACSLKQGTHEITSAVQPGQSLYGLQLTNQQRIIIFGGGLPVIFNEQVIGAVGVSGGTVEQDQLLAQCALDCFSALEGGSHHHHHH", "soluble on expression in E. coli": "soluble"},
      {"sequence": "MSLMPRIKPLLVLCAALLTVTPAASADVNSDMNQFFNKLGFASNTTQPGVWQGQAAGYAYGGSLYARTQVKNVQLISMTLPDINAGCGGIDAYLGSFSFINGEQLQRFVKQIMSNAAGYFFDLALQTTVPEIKTAKDFLQKMASDINSMNLSSCQAAQGIIGGLFPRTQVSQQKVCQDIAGESNIFADWAASRQGCTVGGKSDSVRDKASDKDKERVTKNINIMWNALSKNRMFDGNKELKEFVMTLTGSLVFGPNGEITPLSARTTDRSIIRAMMEGGTAKIYHCNDSDKCLKVVADTPVTISRDNALKSQITKLLASIQNKAVSDTPLDDKEKGFISSTTIPVFKYLVDPQMLGVSNSMIYQLTDYIGYDILLQYIQELIQQARAMVATGNYDEAVIEHINDNMNDATRQIAAFQSQVQVQQDALLVVDRQMSYMRQQLSARMLSRYQNNYHFGGSTLEGHHHHHH", "soluble on expression in E. coli": "not soluble"}
    ]}
  ]
}
